Laboratory results published in the DeepSol protein solubility set.

assay: soluble on expression in E. coli; label from the status in PepcDB or PDB records

Row | Sequence | soluble on expression in E. coli
1 | GSHMPNYDTSIDIEDIKKILPHRYPFLLVDKVIYMQPNKTIIGLKQVSTNEPFFNGHFPQKQIMPGVLQIEALAQLAGILCLKSDDSQKNNLFLFAGVDGVRWKKPVLPGDTLTMQANLISFKSSLGIAKLSGVGYVNGKVVINISEMTFALSK | soluble
2 | MTSTKAYVLALAGCTNSGKSTLAKEFQRFFGAGETTIINQDEFYKTENEVEKIYHPDAEHLTDEGYYWSFDEKEAINIDQFRQRILNESKVYKNVIIDGNMITEMDEIVDLCDRIVVMTLDFKTCKRRREARTDYVPADTPGYFVNVAFPAYVRHLERARQRSRTDSRLTFIDVSESKFDDKNKSIVNFRQQILDDHIKLTDEVIDVKVVDQLVSHPSCGAISTFNGVTRDNHGGRDVSNLSYDCHDLMAYKKLRGICAEIRAEYPDVKKIAIFHRLGKVDIGESSVIISTSSPHRKTAIQATEKCIDLLKEHAPIFKYEEYSNGEVDGVWKSNIEDSKQ | not soluble
3 | GHVETIKNTFLNPKSNKVLVVAHRGNWRSAPENSTAAIDSAIAMKVDIVEIDIQKTKDGQLILMHDNTLDRTTTGKGEIKNWTLADIKKLKLKDKDGKVTNYVVPTLEEALLTAKGKIMVNLDKAYDIFDDVYAILEKTETQNQVIMKGGQPIETVKREFGSYLDKVLYMPVIDLGNKEAEKIITDYLKELRPAAFEIIYSDPKNPLPPKIKQLLFKKSLIWYNTLWGSLAGNHDDNLALTDPEKSYGYLIEQLGARILQTDQPAYLLDYLRKKGWHN | soluble
4 | MLDTDTITFVNCMHEYICEMDSYPKMNTEIINFESDALRDNYLGDEFRRQILVYTPDSMTDSYPLMIELAGTNWKPRLHNKFANIVEKLFSQGLKAVIANPNFSTKYNINQYINSPAVGNYEDFIITEIVPYLRERYRTGKTALFGKSSGGFGSYTLAVRHPEVINGFADHFGDSCFFYLYADDFAYTYNMLQKYKKSELIEHLLSKRPTDEEMRALNVFGSSAFYSPDLNDPSGFDLPFDENTGEIKENVWSRWKQLDPVKNVKQNLDALKKLDAVYLDVGDSDEYRLYIGSRSLHNKLLEGGIEHHYEEFHGGHFGNSERYLVSLPYLYDALRVKE | not soluble
5 | VRFVSELCALHGTDPVPMALIMEPVSKWSPSQVVDWMKGLDDCLQQYIKNFEREKISGDQLLRITHQELEDLGVSRIGHQELILEAVDLLCALNYGLETENLKTLSHKLNASAKNLQNFITGRRRSGHYDGRTSRKLPNDFLTSVVDLIGAAKSLLAWLDRSPFAAVTDYSVTRNNVIQLCLELTTIVQQDCTVYETENKILHVCKTLSGVCDHIISLSSDPLVSQSAHLEVIQLANIKPSEGLGMYIKSTYDGLHVITGTTENSPADRCKKIHAGDEVIQVNHQTVVGWQLKNLVNALREDPSGVILTLKKRPQSMLTSAPALLKNMRWKPLALQPLIPRSPTSSVATPSSTISTPTKRDSSALQDLYIPPPPAEPYIPRDEKGNLPCEDLRGHMVGKPVHKGSESPNSFLDQEYRKRFNIVEEDTVLYCYEYEKGRSSSQGRRESTPTYGKLRPISMPVEYNWVGDYEDPNKMKRDSRRENSLLRYMSNEKIAQEEYMFQRNSKKDTGKKSKKKGDKSNSPTHYSLLPSLQMDALRQDIMGTPVPETTLYHTFQQSSLQHKSKKKNKGPIAGKSKRRISCKDLGRGDCEGWLWKKKDAKSYFSQKWKKYWFVLKDASLYWYINEEDEKAEGFISLPEFKIDRASECRKKYAFKACHPKIKSFYFAAEHLDDMNRWLNRINMLTAGYAERERIKQEQDYWSESDKEEADTPSTPKQDSPPPPYDTYPRPPSMSCASPYVEAKHSRLSSTETSQSQSSHEEFRQEVTGSSAVSPIRKTASQRRSWQDLIETPLTSSGLHYLQTLPLEDSVFSDSAAISPEHRRQSTLPTQKCHLQDHYGPYPLAESERMQVLNGNGGKPRSFTLPRDSGFNHCCLMLQLVPVTHRMTCNPQRWRKRRRRRRRKGRQQGKT | soluble
6 | MTVEEYQQTVAQWLEVAKDPHFNKAYTELTYKPMREMVTYLQDHDFKVYIVSGGGVDFMRTWAPEVYGIPEEQIIGSALKYKYDYNNSNPTVTKLGEILTIDDKAGKVENIQHIIGKKPVLAIGNSDGDHAMMQWATSQPNSMAMIVHHTDEAREWKYDR | not soluble
7 | MAHHHHHHMALPRGMHLLLKIYLQKCRLRWLREALNCIRGMVSMRLVMASMGSTPVERHKGEVAPGAEGEDTHFWLDGSFAEAEEALRQFFEMIKFPLPQRFSFAEEIRRDMKKRYPHCGEEALKSEEDITVVDAAALFKCVDGYIAFLSTRSDVGIGNAE | not soluble
